Here are results for 20 molecules from patent US20220016254A1 (BEIJING QL BIOPHARMACEUTICAL, published 2022).

Residue numbers refer to the chain shown, from its start.

In assay [1] the target is T1, human beta-Klotho (human, UniProt Q86Z14 1-1044).
T1 sequence (looked up): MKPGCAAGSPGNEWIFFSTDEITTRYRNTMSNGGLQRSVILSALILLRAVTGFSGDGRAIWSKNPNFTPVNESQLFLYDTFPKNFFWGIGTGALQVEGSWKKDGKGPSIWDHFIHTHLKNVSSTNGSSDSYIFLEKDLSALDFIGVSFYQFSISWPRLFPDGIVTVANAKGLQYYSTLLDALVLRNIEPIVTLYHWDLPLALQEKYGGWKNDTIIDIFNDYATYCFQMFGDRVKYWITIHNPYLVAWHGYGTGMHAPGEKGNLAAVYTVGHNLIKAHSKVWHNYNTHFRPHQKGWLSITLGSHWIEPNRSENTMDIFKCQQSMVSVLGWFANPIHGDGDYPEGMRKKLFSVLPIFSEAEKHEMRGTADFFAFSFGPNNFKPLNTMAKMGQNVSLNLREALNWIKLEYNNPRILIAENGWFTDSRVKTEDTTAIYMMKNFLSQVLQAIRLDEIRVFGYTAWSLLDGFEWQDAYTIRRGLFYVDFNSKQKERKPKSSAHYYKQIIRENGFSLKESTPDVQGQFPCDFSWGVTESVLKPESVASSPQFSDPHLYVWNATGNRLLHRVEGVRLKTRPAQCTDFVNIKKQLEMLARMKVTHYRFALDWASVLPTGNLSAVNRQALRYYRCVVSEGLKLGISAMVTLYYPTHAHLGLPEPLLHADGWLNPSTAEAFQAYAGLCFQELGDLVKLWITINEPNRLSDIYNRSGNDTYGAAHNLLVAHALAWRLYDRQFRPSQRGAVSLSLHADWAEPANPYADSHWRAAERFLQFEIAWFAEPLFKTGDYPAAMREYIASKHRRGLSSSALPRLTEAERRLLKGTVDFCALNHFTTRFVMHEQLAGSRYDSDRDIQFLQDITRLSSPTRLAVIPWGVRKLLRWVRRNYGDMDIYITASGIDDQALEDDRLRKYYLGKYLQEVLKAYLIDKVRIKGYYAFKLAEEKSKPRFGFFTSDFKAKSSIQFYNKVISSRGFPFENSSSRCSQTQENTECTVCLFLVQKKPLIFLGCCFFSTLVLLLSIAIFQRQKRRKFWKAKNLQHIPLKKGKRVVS
The assay can be described thus: cell-based or functional assay.

Assay [2] has as its target human GLP-1 receptor (human, UniProt P43220 24-463). Kind of assay: cell-based or functional assay.

B1: Compound 22 (ligand)
chain: HGEGTFTSDVSSYLEEQAAREFIAWLVRGGGGGGGSGGGGSGGGGSGGGGKHPIPDSSPLLQFGGQVRQRYLYTDDAQQTEAHLEIREDGTVGGAADQSPESLLQLRALRPGVIQILGVRTSRFLCQRPDGALYGSLHFDPEACSFRELLLEDGYNVYQSEAHGLPLHLPGQRSPHRDPAPRGPARFLPLPGLPPALPEPPGILAPQPPDVGSSDPLSLVGGSQGRSPSYK
modifications: Moiety A (HOOC-(CH2)16-CO-gGlu-2XADO) on 51K and 231K of fusion polypeptide
As for B1, the “FGF21 activity (EC50, nM); p-ERK levels” value in assay [1] stood at 7 nM. Besides, the “GLP-1 activity (EC50, pM); CRE luciferase reporter” value (shortened to “GLP-1 activity (EC50, pM)”) in assay [2] was 50.4 pM.

B2: Compound 40 (ligand)
chain: HGEGTFTSDVSSYLEEQAAREFIAWLVRGGGGAQPGAQPGAQPGAQPGAQPGAQPGAQPGAQPGAQPGAQPGAQPGAQPGAQPGAQPGAQPGAQPGAQPGAQPGAQPGAQKHPIPDSSPLLQFGGQVRQRYLYTDDAQQTEAHLEIREDGTVGGAADQSPESLLQLRALRPGVIQILGVRTSRFLCQRPDGALYGSLHFDPEACSFRELLLEDGYNVYQSEAHGLPLHLPGQRSPHRDPAPRGPARFLPLPGLPPALPEPPGILAPQPPDVGSSDPLSLVGKSQGRSPSYES
modifications: Moiety A (HOOC-(CH2)16-CO-gGlu-2XADO) on 111K and 282K of fusion polypeptide
Take B2: the “FGF21 activity (EC50, nM); p-ERK levels” value in assay [1] came out at 8 nM.

B3: Compound 13 (ligand)
chain: HGEGTFTSDVSSYLEEQAAREFIAWLVRGGGGAQPGAQPGAQPGAQPGAQPHPIPDSSPLLQFGGQVRQRYLYTDDAQQTEAHLEIREDGTVGGAADQSPESLLQLRALRPGVIQILGVRTSRFLCQRPDGALYGSLHFDPEACSFRELLLEDGYNVYQSEAHGLPLHLPGQRSPHRDPAPRGPARFLPLPGLPPALPEPPGILAPQPPDVGSSDPLSLVGKSQGRSPSYES
modifications: Moiety A (HOOC-(CH2)16-CO-gGlu-2XADO) on 222K of fusion polypeptide
Regarding B3, the “FGF21 activity (EC50, nM); p-ERK levels” value in assay [1] is 9.1 nM. Also, the “GLP-1 activity (EC50, pM)” value in assay [2] was found to be 19.6 pM.

B4: Compound 48 (ligand)
chain: B3 chain with P51K
modifications: Moiety A (HOOC-(CH2)16-CO-gGlu-2XADO) on 51K and 222K of fusion polypeptide
With B4, in assay [1], the “FGF21 activity (EC50, nM); p-ERK levels” value was 20.4 nM. In addition, the “GLP-1 activity (EC50, pM)” value in assay [2] was 14.4 pM.

B5: Compound 14 (ligand)
chain: B3 chain with A33Q, Q34E, A37Q, Q38E, A41Q, Q42E, A45Q, Q46E, A49Q, Q50E
modifications: Moiety A (HOOC-(CH2)16-CO-gGlu-2XADO) on 222K of fusion polypeptide
Take B5: the “FGF21 activity (EC50, nM); p-ERK levels” value in assay [1] is 19 nM. Moreover, in assay [2], the “GLP-1 activity (EC50, pM)” value was determined as 33.2 pM.

B6: Compound 50 (ligand)
chain: HGEGTFTSDVSSYLEEQAAREFIAWLVRGGGGGGGSGGGGSGGGGSGGGGKHPIPDSSPLLQFGGQVRQRYLYTDDAQQTEAHLEIREDGTVGGAADQSPESLLQLRALRPGVIQILGVRTSRFLCQRPDGALYGSLHFDPEACSFRELLLEDGYNVYQSEAHGLPLHLPGQRSPHRDPAPRGPARFLPLPGLPPALPEPPGILAPQPPDVGSSDPLSLVGGSQGRSPSYESK
modifications: Moiety A (HOOC-(CH2)16-CO-gGlu-2XADO) on 51K and 233K of fusion polypeptide
Take B6: in assay [1], the “FGF21 activity (EC50, nM); p-ERK levels” value is 8.7 nM. The “GLP-1 activity (EC50, pM)” value in assay [2] was found to be 15.4 pM.

B7: Compound 39 (ligand)
chain: HGEGTFTSDVSSYLEEQAAREFIAWLVRGGGGGGGSGGGGSGGGGSGGGGSGGGGSGGGGSGGGGSGGGGKHPIPDSSPLLQFGGQVRQRYLYTDDAQQTEAHLEIREDGTVGGAADQSPESLLQLRALRPGVIQILGVRTSRFLCQRPDGALYGSLHFDPEACSFRELLLEDGYNVYQSEAHGLPLHLPGQRSPHRDPAPRGPARFLPLPGLPPALPEPPGILAPQPPDVGSSDPLSLVGKSQGRSPSYES
modifications: Moiety A (HOOC-(CH2)16-CO-gGlu-2XADO) on 71K and 242K of fusion polypeptide
Consider B7, for which the “FGF21 activity (EC50, nM); p-ERK levels” value in assay [1] is 4.2 nM. In assay [2], the “GLP-1 activity (EC50, pM)” value stood at 12.6 pM.

B8: Native FGF21 (ligand)
chain: HPIPDSSPLLQFGGQVRQRYLYTDDAQQTEAHLEIREDGTVGGAADQSPESLLQLKALKPGVIQILGVKTSRFLCQRPDGALYGSLHFDPEACSFRELLLEDGYNVYQSEAHGLPLHLPGNKSPHRDPAPRGPARFLPLPGLPPALPEPPGILAPQPPDVGSSDPLSMVGPSQGRSPSYAS
Consider B8, for which, in assay [1], the “FGF21 activity (EC50, nM); p-ERK levels” value was determined as 10.6 nM.

B9: Compound 9 (ligand)
chain: HGEGTFTSDVSSYLEEQAAREFIAWLVRGGGGGGGSGGGGSGGGGSGGGGSHPIPDSSPLLQFGGQVRQRYLYTDDAQQTEAHLEIREDGTVGGAADQSPESLLQLRALRPGVIQILGVRTSRFLCQRPDGALYGSLHFDPEACSFRELLLEDGYNVYQSEAHGLPLHLPGQRSPHRDPAPRGPARFLPLPGLPPALPEPPGILAPQPPDVGSSDPLSLVGGSQGRSPSYKS
modifications: Moiety A (HOOC-(CH2)16-CO-gGlu-2XADO) on 231K of fusion polypeptide
As to B9, the “FGF21 activity (EC50, nM); p-ERK levels” value in assay [1] was 4.9 nM. For the same molecule, the “GLP-1 activity (EC50, pM)” value in assay [2] was 19.9 pM.

B10: Compound 21 (ligand)
chain: B9 chain with S51K, G225K, K231E
modifications: Moiety A (HOOC-(CH2)16-CO-gGlu-2XADO) on 51K and 225K of fusion polypeptide
Turning to B10, in assay [1], the “FGF21 activity (EC50, nM); p-ERK levels” value amounted to 17.6 nM. Moreover, the “GLP-1 activity (EC50, pM)” value in assay [2] was found to be 36.8 pM.

B11: Compound 20 (ligand)
chain: B9 chain with S51K, G221K, G222P, K231E
modifications: Moiety A (HOOC-(CH2)16-CO-gGlu-2XADO) on 51K and 221K of fusion polypeptide
As for B11, the “FGF21 activity (EC50, nM); p-ERK levels” value in assay [1] worked out at 10.6 nM. In assay [2], the “GLP-1 activity (EC50, pM)” value came out at 39.1 pM.

B12: Compound 52 (ligand)
chain: B9 chain with R20K, S51C, R107K, R110K, R120K, R173K, G225C, K231E
modifications: Moiety B (HOOC-(CH2)20-CO-gGlu-2XADO-EDA-CO-CH2) on 51C and 225C of fusion polypeptide
With B12, the “FGF21 activity (EC50, nM); p-ERK levels” value in assay [1] was 2.4 nM. In addition, the “GLP-1 activity (EC50, pM)” value in assay [2] came to 30.2 pM.

B13: Compound 19 (ligand)
chain: B9 chain with S51K, G222K, K231E
modifications: Moiety A (HOOC-(CH2)16-CO-gGlu-2XADO) on 51K and 222K of fusion polypeptide
With B13, the “FGF21 activity (EC50, nM); p-ERK levels” value in assay [1] amounted to 13.6 nM. Besides, the “GLP-1 activity (EC50, pM)” value in assay [2] turned out to be 20.3 pM.

B14: Compound 12 (ligand)
chain: B9 chain with G225K, K231E
modifications: Moiety A (HOOC-(CH2)16-CO-gGlu-2XADO) on 225K of fusion polypeptide
With B14, the “FGF21 activity (EC50, nM); p-ERK levels” value in assay [1] came to 4.1 nM. For the same molecule, the “GLP-1 activity (EC50, pM)” value in assay [2] stood at 17 pM.

B15: Compound 11 (ligand)
chain: B9 chain with G221K, G222P, K231E
modifications: Moiety A (HOOC-(CH2)16-CO-gGlu-2XADO) on 221K of fusion polypeptide
Regarding B15, the “FGF21 activity (EC50, nM); p-ERK levels” value in assay [1] was 3.9 nM. Also, the “GLP-1 activity (EC50, pM)” value in assay [2] is 18.2 pM.

B16: Compound 10 (ligand)
chain: B9 chain with G222K, K231E
modifications: Moiety A (HOOC-(CH2)16-CO-gGlu-2XADO) on 222K of fusion polypeptide
On to B16, for which the “FGF21 activity (EC50, nM); p-ERK levels” value in assay [1] is 4.5 nM. Further, in assay [2], the “GLP-1 activity (EC50, pM)” value was found to be 17.6 pM.

B17: Compound 51 (ligand)
chain: B9 chain with R20K, S51C, R107K, R110K, R120K, R173K, G222C, K231E
modifications: Moiety B (HOOC-(CH2)20-CO-gGlu-2XADO-EDA-CO-CH2) on 51C and 222C of fusion polypeptide
In the case of B17, the “FGF21 activity (EC50, nM); p-ERK levels” value in assay [1] amounted to 4.3 nM. Moreover, in assay [2], the “GLP-1 activity (EC50, pM)” value came out at 30.7 pM.

B18: Compound 15 (ligand)
chain: B9 chain with G222P
modifications: Moiety A (HOOC-(CH2)16-CO-gGlu-2XADO) on 231K of fusion polypeptide
With B18, the “FGF21 activity (EC50, nM); p-ERK levels” value in assay [1] was found to be 7.3 nM. Besides, the “GLP-1 activity (EC50, pM)” value in assay [2] was 16.8 pM.

B19: Compound 2 (ligand)
chain: B9 chain with R20K
modifications: Moiety A (HOOC-(CH2)16-CO-gGlu-2XADO) on 20K and 231K of fusion polypeptide
Regarding B19, the “FGF21 activity (EC50, nM); p-ERK levels” value in assay [1] is 5.5 nM. For the same molecule, the “GLP-1 activity (EC50, pM)” value in assay [2] worked out at 46.6 pM.

B20: Compound 42 (ligand)
chain: HGEGTFTSDVSSYLEEQAAREFIAWLVRGGGGAQPGAQPGAQPGAQPGAQPGAQPGAQPGAQPGAQPGAQKHPIPDSSPLLQFGGQVRQRYLYTDDAQQTEAHLEIREDGTVGGAADQSPESLLQLRALRPGVIQILGVRTSRFLCQRPDGALYGSLHFDPEACSFRELLLEDGYNVYQSEAHGLPLHLPGQRSPHRDPAPRGPARFLPLPGLPPALPEPPGILAPQPPDVGSSDPLSLVGKSQGRSPSYES
modifications: Moiety A (HOOC-(CH2)16-CO-gGlu-2XADO) on 71K and 242K of fusion polypeptide
With B20, the “FGF21 activity (EC50, nM); p-ERK levels” value in assay [1] came to 8.4 nM.
